This note sets out measurements from paper PMC11935020.

This test addresses improved light‐induced dimerizing protein (iLID) (Avena sativa | Escherichia coli). As to the kind of experiment: recruitment to the GUV membrane, fluorescence microscopy; 450 nM iLID (His tag on DGS–NTA (Ni) lipids, inner membrane) and 100 nM SspB–mCherry encapsulated in POPC GUVs with 5% DGS–NTA (Ni); external blue light for 15 min.

B1: SspB Nano–mCherry (stringent starvation protein B, Nano, fused to mCherry), P0AFZ3 1-165 (natural protein)
chain: SSPKRPKLLREYYDWLVDNSFTPYLVVDATYLGVNVPVEYVKDGQIVLNLSASATGNLQLTNDFIQFNARFKGVSRELYIPMGAALAIYARENGDGVMFEPEEIYDELNI
modifications: not checked
Consider B1, for which the ratio of mCherry intensity at the GUV membrane to luminal intensity is 3 fold.
